Measured values reported in patent publication US20240092922A1 (EUCURE BEIJING BIOPHARMA, published 2024).
Where a chain is given by its changes, count along the chain named.

B1: 1C4-H2K2-IgG4 (antibody, V domains shown)
VH: QVQMVQSGAEVKKPGASVKLSCKASGFTFSSSYINWLRQAPGQSLEWIGWIFAGTGGTYYNQKFTGRVQITRDTSASTAYMELSSLRSEDTAIYYCARHSPRATLFDFWGQGTTLTVSS
VL: EIVLTQSPATLSLSPGERATLSCRASSSVNHMHWYQQKPGQAPRALIYATSNLASGIPARFSGSGSGTSFTLTISSLEPEDFATYYCQQWSSNPYTFGGGTKLEIK
notes: humanized
B2: 1C4-H2K4-IgG4 (antibody, V domains shown)
VH: B1 VH
VL: B1 VL with L13A, A19V, L21M, K38R, Q41F, A42S, L46W, F70Y, T71S
notes: humanized
B3: 1C4-H3K2-IgG4 (antibody, V domains shown)
VH: B1 VH with V68A
VL: B1 VL
notes: humanized
B4: 1C4-H3K3-IgG4 (antibody, V domains shown)
VH: B1 VH with V68A
VL: B1 VL with L21M, Q41F, A42S, L46W
notes: humanized
B5: 1C4-H3K4-IgG4 (antibody, V domains shown)
VH: B1 VH with V68A
VL: B1 VL with L13A, A19V, L21M, K38R, Q41F, A42S, L46W, F70Y, T71S
notes: humanized
B6: 1C4-H4K1-IgG4 (antibody, V domains shown)
VH: B1 VH with V2G, A24T, G49A, V68A, I70L, R72V
VL: B1 VL with T84V
notes: humanized
B7: 1C4-H4K2-IgG4 (antibody, V domains shown)
VH: B1 VH with V2G, A24T, G49A, V68A, I70L, R72V
VL: B1 VL
notes: humanized
B8: 1C4-H4K3-IgG4 (antibody, V domains shown)
VH: B1 VH with V2G, A24T, G49A, V68A, I70L, R72V
VL: B1 VL with L21M, Q41F, A42S, L46W
notes: humanized
B9: 1C4-H4K4-IgG4 (antibody, V domains shown)
VH: B1 VH with V2G, A24T, G49A, V68A, I70L, R72V
VL: B1 VL with L13A, A19V, L21M, K38R, Q41F, A42S, L46W, F70Y, T71S
notes: humanized
B10: 5F9-H2K2-IgG4 (antibody, V domains shown)
VH: QVQLKESGPGLVKPSETLSLTCTVSGFSLTTYDISWVRQPPGKGLEWLGVIWTGGGTNYNSSFMSRVTISKDTSKNQVSLKLSSVTAADTAIYYCERVDYWGQGTTVTVSS
VL: DVVMTQSPLSLPVTLGQPASISCRSSQSLVHSNGNTYLHWFQQRPGQSPKLLIYKVSNRFSGVPDRFSGSGSGTAFTFKISRVEAEDVGVYYCSQNTHVPWTFGGGTKVEIK
notes: humanized
B11: 5F9-H1K1-IgG4 (antibody, V domains shown)
VH: B10 VH with K5Q, L48I, I92V
VL: B10 VL with K50R
notes: humanized
B12: 5F9-H1K2-IgG4 (antibody, V domains shown)
VH: B10 VH with K5Q, L48I, I92V
VL: B10 VL
notes: humanized; also called 30-5F9-H1K2-IgG4
B13: 5F9-H1K3-IgG4 (antibody, V domains shown)
VH: B10 VH with K5Q, L48I, I92V
VL: B10 VL with F41Y, V109L
notes: humanized
B14: 5F9-H1K4-IgG4 (antibody, V domains shown)
VH: B10 VH with K5Q, L48I, I92V
VL: B10 VL with Q17D, F41Y, Q42L, V109L
notes: humanized

Target: T1, Histidine-tagged human 4-1BB protein (h4-1BB-His) (human, UniProt Q07011 24-186)
T1 construct: not shown: histidine tag
Assay: SPR (Biacore T200), antibody on Protein A chip, h4-1BB-His injected;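 further: dissociation phase followed for 300 s, Kd derived as koff divided by kon from the kinetic fit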
Procedure: The binding affinity of the anti-h4-1BB antibodies were measured using surface plasmon resonance (SPR) using Biacore (Biacore, INC, Piscataway N.J.) T200 biosensor equipped with pre-immobilized Protein A sensor chips.
Dissociation was monitored for 300 seconds. The chip was regenerated after the last injection of each titration with Glycine (pH 2.0, 30 μL/min for 5 seconds).
Affinities were calculated from the quotient of the kinetic rate constants (KD=koff/kon).

Kd | koff | kon | Binder
25.1 nM | 0.000646 s⁻¹ | 25800 M⁻¹ s⁻¹ | B1
20.7 nM | 0.000521 s⁻¹ | 25200 M⁻¹ s⁻¹ | B2
16.3 nM | 0.000453 s⁻¹ | 27700 M⁻¹ s⁻¹ | B3
17.1 nM | 0.000533 s⁻¹ | 31200 M⁻¹ s⁻¹ | B4
15.9 nM | 0.000476 s⁻¹ | 30000 M⁻¹ s⁻¹ | B5
18.2 nM | 0.000516 s⁻¹ | 28400 M⁻¹ s⁻¹ | B6
16.6 nM | 0.00049 s⁻¹ | 29600 M⁻¹ s⁻¹ | B7
16.9 nM | 0.000556 s⁻¹ | 32900 M⁻¹ s⁻¹ | B8
19.3 nM | 0.00056 s⁻¹ | 29000 M⁻¹ s⁻¹ | B9
13.4 nM | 0.00261 s⁻¹ | 194000 M⁻¹ s⁻¹ | B10
11.4 nM | 0.00253 s⁻¹ | 222000 M⁻¹ s⁻¹ | B11
12 nM | 0.00247 s⁻¹ | 205000 M⁻¹ s⁻¹ | B12
10.1 nM | 0.00208 s⁻¹ | 206000 M⁻¹ s⁻¹ | B13
9.95 nM | 0.00244 s⁻¹ | 246000 M⁻¹ s⁻¹ | B14
